Measured values as given in the supplement of paper PMC12636428.

Test system: Saccharomyces cerevisiae
Assay: transcriptional activation domain activity (GFP:mCherry ratio, weighted mean of sorted bins, harmonized to initial dataset scale) (arbitrary fluorescence ratio units); higher = stronger transcriptional activation
Conditions: beta-estradiol 1 µM; induction time 4 h
How it was run: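 Protein tiles carrying barcodes and fused to an estradiol-inducible synthetic transcription factor were placed at the URA3 locus of yeast diploids with a GFP reporter. Following 4 hours at 30 °C in SC with 1 uM beta-estradiol, cells were sorted into 8 GFP:mCherry bins, barcodes were sequenced, and tiles with fewer than 50 reads were discarded. Activation activity is given as the read-weighted mean of bin median fluorescence, averaged across barcodes and linearly mapped to the initial dataset scale.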

Sequence | transcriptional activation domain activity
KGKSKERKTESASTSGSEAKESEAAPKEEKEDAKKEDDKKEKAEEKTEEKAEE | 51500
KSPVKRKPKAEGASADGSPKKRKSKGEAADADGTPKKRGRKPKKAEPQPEIQG | 33700
QVCTLLGASGGSSFVRGGSYLQGGYGLNTADLWRRNFLVLVGWILFFWLLQTI | 54800
GFRFAVAVIDNIQTMKHETMGSYVTLIMNMHITQAVAVWFYSCIFTFKLGQAI | 62500
WQTALVHKHAQRVIHSTLEVVDQLVPKHYDHQLLRRCWGALNLIMTYVSFMCV | 41400
NLNSLNQSEEEGHIGRWPPLGYEAVSAEQKSAVQLRESQAGASISNNMNFKAN | 48200
MANHQLYTDWLYLWWIAYTNKMAGHVYIILKESLKNIPLIGWGAQFYNFIFLA | 54800
DLDILLAKLLEELEDSLQALKRLVVSAFLRFLTGVLYEEFMEAIRPNPHMDNE | 58200
SLSTFVYTFLRFHFYFFAFFLVALTFSFFLLFCSLFVCPVGIIFLYFFIFFVL | 52100
MARCYRLVMCFPFSLCFEYSALILTCSFFSPFIPFRLWCHAVPCGSGVFLFLH | 65700
LLHAAGVHYGYGLLLLKCDILLRLLMFISFLLSSQFLLSVISPLLFFPSFVLM | 54700
EPAVVKAVAAVAAQDGGDGREEHRREKKKKKKKREKREKRELVAGQEGGGGEG | < 6570
CKAHCGYILGHINIFQPINWIFVISSKVFPIDYVLYLLLILFFFSASVVGIAT | 51900
MIKKISFFLYIFALRSSFFLFLFVLYFFFPLFFFFFFSFSFFFLLLVSVATLE | 12200
SHNTHTLSLSLPFPSYSSYSDLIFLFLFLLLFFFFLFLFLFLFLFLFLFSLPF | 34100
PTGRSSTPTSASSTRARRTRGSASARSSRAAGGGSCSSTCRSPPGRVPRTSVS | 36800
SSSNSGGGGGVPEHILARVGYAVVSGLHFLKTKLNVIHRDVKPSNVLCSRAGD | 42900
LDSYPNVLTFAVYTYLRLIPEHRHIQLATLQQREIRFVVSMLRQKWNLCAVIG | 30100
AMKDIEIVKDEETGAPIVRLRGEAAAAAKKAGVQDITLSISHSDNQAIAVAVA | 58900
TPSTCLSFLPFFPLLLPLFFSFPLSLIFFLCNFSFQFFFSSCFLSFYLFVVSF | 66100
ICNFFYKNILGMGVLFWYQIYCGWSSTYVYNYVYLLFWNVFWTLCPVIAIGLF | 41800

Sequence | transcriptional activation domain activity
MDDTERRTAKRSRFDQTEPEPKPRASRFDRRSRSPPARKPESRRSRSPIARPS | 17000
LILLRLLWPVTLYFFVSLMYSLLSLAFGVPFSRNFGHAGFLIYWMMSWCSMSA | 62400
AQPPAIEGKKSKKGEAPAAEVQKKEKKEKKPAEEGASKKGGSAKAAAAPAEDA | 9790
AVAAAVAAIAAVAAEIKTVPAQAQEQEQEQEQEQAQVQVQVQAQAQPQQQQQA | < 6570
LFFLSFFLGLFLFFFSLSLLLVPSSFFFLVFCLFLSFFFILSFFPRFLFFFFF | 39700
LLEELTQRLLQTDETPDSKVKDLSRFINMIILRFFATARRMAVFRALFNLLLH | 50300
EVMKITPVQKQTRAGQRTRFKAFVAIGDSNGHVGLGVKCAKEVASAIRGAIIL | 61100
DWYFDLPLWVFVCFFLFVFLTLMTFRTPSLTRYYCTVVYYLLGKWVGNCIVYT | 18200
LLGLYMKMRFRTQEDFWRQIAILLRDLFVPDLQAETVVFFMRLLYNSNSMYKH | 24100
ESDILPRLLHAIRAELKEDISLKFAWRLYKLYLLCVYHLWKNVVLMIWYRRWI | 81700
MLMAWVIHAKCSAVPQCPPRPAVRSYIGRITLSLIIRARCILEMIVFPTFICW | 55600
AQEAIAEQGEERGDGAGQEKAPVGKRAAEDPAAAPRGSAKRKADKGERSGAEQ | 7850
FYPIGRRWQWYWGLWVCACALISLFSNIEVDRYYLQSLPITITIFFWYLMCMG | 28200
DNESDAEPQQEKSKSQSRRRQSRGRGRRGADSGAESDARSDVSQSGGRRNRQR | 44200
MLLGRHIFLYFILSFFLSFWLHTIPYLLLDFTYYHNPIISTLPTSYFFSIFLI | 72200
IVMGKGTVHLCYLILSFFMYLLYSLLSHTQNILLDPLHTLFVSTFCLLHHSVF | 56200
SLHKIHLVYRDVLRDKLRASVGCSRIRKILRSPPLYPTWMRCLFAFICASIIC | 57600
MLLHVFRLIEIIEILWISCICAILLVVFVILEVCNLFVLGRKISFLMFCVWVI | 54400
HWRAFVTGGGSAFWLLAYGIFYWASRLSLDSFTSVILYLGYLVLLALMDFLVT | 20300
VLSRVTGLEHKQMCKIILGLIIDLLLPSGGDTSRILRTVRALLDFLYLAQLPS | 73900
AVRLLSTKKISMSQANIGQTYFAHYCLSLLRLARYALSTMIKMFGPVYGWWLF | 64300

Sequence | transcriptional activation domain activity
ERKEAKEQTRRETESKARRGADKEGSEENREDEEGEKKERTSESTDKQKSRRT | 33700
SWRDPSYIYSKIGLCSTASLFLGLSFLNQPVSLQGVQNQIFSFFMLLVIQVFM | 60200
MGVCLCVALFAPFFSLFFFLSPAPYCSGKIWHLSILFLLYHCRRVLPLFILAC | 49600
TGILAVTLWNIFINKYWPKRRALVVIVILLHVLITVNFATNWAFTYSAFIQNG | 49800
MSSSDPLRKRDFEDSTRRLACDRCRGQKLRCERITGKTTSPCRRCVKARARCT | 35300
LNKVCCIFCFLFSFYLLSFYSPFYFCFAFILLLSFFFFFFFFLLLLYFLLLSI | 48600
WPWTFWPWTFWIFWTFWTFGLFGLFGLFGLGLFGLFGLFGPLDFLDFLDLWTF | 42000
FKVGIDGCLRLRGAGSTLCFHRVVRILTATIGTMVRVLFVCKELWRVTGEETS | 51700
RGGRGRRNGGKERGKEKKGKKEEENDRRGKGKERKERRKNDGGKRREGREREK | 47600
SNFASKVNTQLNLLQHSSSNSNFLDASPYDFNKIFMNNFENYDYETDEGYAED | 63600
ASIPDPAADDDDAEFGGTGEKKPRKRAPKAASGESKNGKAKAVKTEGGASAAG | 33300
DPQTLSVAHRSYLRCLTQRLLLTQPTFTECMYNLLIHTDHLVALIHRLDGVWS | 38400
ISMEKIGRRAFNKGMKNIDEGPETENDATENSLTTILNDLEGPLEDFSENFID | 34300
MINKKTNPCKILFDPFSSFLFGNLILLSLFLFVDVIFSLPCFLYVCFVFFPSL | 69200
KKGRRGRRRNRRGRKEGESEKGRKGGKGKGRKGEEQRRVRIKKGSRGTGEGEK | < 6570
APPPREGGARGGRGGRGRGEFRGGEGRGRGEGRESRGGEGRGRGGEGRGEFRG | 25900
LIHLMNIGQVSILFIHRFLYGLVPLFEITTCAFWPLLVSLWHLNFVLMYCIMF | 66000
QGDYMCQYRGGLIGKHFKTLLQIMAFAVQDLVPPDVLEAWLILGRLTVLLWHM | 82000
ILGRLCRVRVLGFNDVLVRVDIILCLHLDTPAEAVFRVQRLVSLMGMLALQVF | 41300
DLLLEGYDTNRLLVVIPFTCKVLEQAAKSMVFKPPNPWLMAIVKLLAELYLYA | 73900
MIFMPSCCGFFISMFTTYGTLFSIRGILTYNPFFLCTFLFPFLFHGVPCLFLF | 49700

Sequence | transcriptional activation domain activity
NMSPNNDDNSIDTASTNTTNRKKNIDENIKNNNDIINDIIFNTNLANNLSNYN | 51000
NPPSWHHTLVFWGGKLFFCFYRIILPAYLIGWARTLLYLTLSDLVSSYWLALT | 51300
PSPLPKHQIIREASNVRNITKMKKYDSTFYLHRDHVNYEEYGVDSLLFSYPED | 58100
GAAATPAKPLGFGATSTATTGGLFGNTGAAPAAGGGLFGATATSHQLLVLVAV | 85800
GDDEETQGNATKNILDDWEGAPESFVCQEQRQTGGRVAAKTQRLLSFSIHDEL | 23100
MKFCFIVWLSCMCIYFAKVIVVFLIALCLDNIFPFHIPNTKLLIPSTHFMITW | 57500
GDKTEGAEGEDGAQRRQSTRGRGRSGRGRGGRGRGGRADENKDEENHEDAGES | 22500
MSSLFFSFQAVQFWFLGFLGLSWFRLVSTSYNIVDFLSFLSVHHHVLSWLGIP | 63500
RLCEFLFFLLFFGGFLVGGLVGLGVWFGWAFVLAFSFFLALHFGVSNHLFVVF | 29000
DGEGEDAEDGSKKDAEVAYHSGLGLKFRYPGDPKKLREASKLKLWTAYLKDHG | 55100
SWRRLPLAMLNFSRAVTFRWTIIIARTYSLNLADVLLTGMYITILFTWNFHNS | 40000
MGRDSSLPYFNSPSFWVAFFWSGAGLFFSFFTGFIYFPEQIFFPLFFFLFFED | 58800
NLSLQEIVGILLRANAFRPMCKNCEHLRDKVGAHIVDCACFEYWLQLGLFIAP | 47000
GQHEGLDKLREYHEHVLDRILFALLLRKRQKPVMKLLEEIFTLVLKFSKYSSA | 59400
IGWWMVKSGLKDDLFAPGSHPRVSQYRLTAHLSTAFFCYSWMLLAGLSVLRTR | 69800
WLAHSKKKDCDVCKHPYSFNKVYSPDMPARLPPVLLLRHLAKQLFFTVLFSIR | 76900
DIEQQVRFRLTQIYFLILKLDAFFHFVLCVFYAVVMTQEKYYTLWGVIDRKFI | 79400
MSGTNNSAAPPSYFDKAKDAMHSVVGNLTGHDDKETSSKPYVPTVSSACTAVV | 61800
RRLAGLLRHLQHRTREMGGHIVLIADPTQVCFVLLRPIIKKPALPAELVRKFW | 44800
MPRPFSFFFSFLLFLLFFFSIFFIFLFLLFFFLVKGIWTTYKYVLVTCLYLVI | 32700
